Results taken from the supplement of paper PMC9112550, “Optimization of the antimicrobial peptide Bac7 by deep mutational scanning” (BMC Biology, 2022).

Tested on: Escherichia coli TOP10
Assay: shrunken log2 fold change of peptide-encoding DNA abundance (4.5 h post-induction vs induction); higher = less antimicrobial activity (less host growth inhibition)
Conditions: time post-induction: 4.5 h; library: site-saturation at positions 5, 18, 19, 20
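Also: peptides expressed intracellularly from a pBAD plasmid library in pooled LB shake-flask culture, induced with 0.3% L-arabinose, DNA abundance read by NGS, three biological replicates, DESeq2 with apeglm shrinkage.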

Row | Sequence | shrunken log2 fold change
1 | RRIRPRPPRLPRPRPRPEIQPRP | 0.07
2 | RRIRKRPPRLPRPRPRPFKIPRP | 0.00571
3 | RRIRERPPRLPRPRPRPQCDPRP | -0.162
4 | RRIRKRPPRLPRPRPRPFAMPRP | 0.359
5 | RRIRKRPPRLPRPRPRPFGFPRP | -0.137
6 | RRIRFRPPRLPRPRPRPLSTPRP | -0.47
7 | RRIRERPPRLPRPRPRPRIEPRP | -0.0877
8 | RRIRCRPPRLPRPRPRPSKMPRP | -0.492
9 | RRIRDRPPRLPRPRPRPSFNPRP | -0.68
10 | RRIRTRPPRLPRPRPRPMLHPRP | 0.111
11 | RRIRGRPPRLPRPRPRPFDNPRP | 0.23
12 | RRIRARPPRLPRPRPRPECCPRP | 0.996
13 | RRIRRRPPRLPRPRPRPPTSPRP | 0.54
14 | RRIRLRPPRLPRPRPRPWCFPRP | -0.158
15 | RRIRNRPPRLPRPRPRPPSCPRP | -0.134
16 | RRIRWRPPRLPRPRPRPFHDPRP | -0.285
17 | RRIRFRPPRLPRPRPRPKEPPRP | -0.135
18 | RRIRRRPPRLPRPRPRPENSPRP | 0.118
19 | RRIRSRPPRLPRPRPRPFQHPRP | -0.0131
20 | RRIRNRPPRLPRPRPRPTGGPRP | 0.154
21 | RRIRDRPPRLPRPRPRPGRQPRP | 0.0393
22 | RRIRFRPPRLPRPRPRPTKAPRP | 0.0916
23 | RRIRCRPPRLPRPRPRPDMMPRP | 0.00614
24 | RRIRFRPPRLPRPRPRPWIPPRP | -0.432
25 | RRIRVRPPRLPRPRPRPELIPRP | 0.0562

Row | Sequence | shrunken log2 fold change
26 | RRIRDRPPRLPRPRPRPDNHPRP | -0.107
27 | RRIRLRPPRLPRPRPRPAEYPRP | -0.0275
28 | RRIRWRPPRLPRPRPRPISNPRP | -0.0292
29 | RRIRQRPPRLPRPRPRPQITPRP | -0.337
30 | RRIRARPPRLPRPRPRPNLHPRP | 0.0181
31 | RRIRQRPPRLPRPRPRPCVKPRP | -0.0496
32 | RRIRSRPPRLPRPRPRPFWDPRP | 0.0853
33 | RRIRWRPPRLPRPRPRPENVPRP | 0.0417
34 | RRIRRRPPRLPRPRPRPQKKPRP | -0.0695
35 | RRIRHRPPRLPRPRPRPCVKPRP | -0.121
36 | RRIRFRPPRLPRPRPRPKRVPRP | 0.598
37 | RRIRARPPRLPRPRPRPLATPRP | 0.647
38 | RRIRYRPPRLPRPRPRPAIVPRP | -0.0768
39 | RRIRIRPPRLPRPRPRPENQPRP | -0.473
40 | RRIRARPPRLPRPRPRPPPEPRP | 1.24
41 | RRIRMRPPRLPRPRPRPATWPRP | 0.515
42 | RRIRIRPPRLPRPRPRPACQPRP | 0.0224
43 | RRIRFRPPRLPRPRPRPLEWPRP | 0.0696
44 | RRIRERPPRLPRPRPRPRTFPRP | -0.0471
45 | RRIRIRPPRLPRPRPRPRSKPRP | -0.251
46 | RRIRMRPPRLPRPRPRPNEHPRP | 0.0235
47 | RRIRRRPPRLPRPRPRPTRQPRP | 1.33
48 | RRIRQRPPRLPRPRPRPWLMPRP | -0.102
49 | RRIRDRPPRLPRPRPRPSVCPRP | 0.294
50 | RRIRNRPPRLPRPRPRPFVSPRP | -0.394

Row | Sequence | shrunken log2 fold change
51 | RRIRARPPRLPRPRPRPDYFPRP | -0.0428
52 | RRIRTRPPRLPRPRPRPYFNPRP | -1.03
53 | RRIRTRPPRLPRPRPRPTWGPRP | 0.31
54 | RRIRTRPPRLPRPRPRPIHWPRP | 0.0444
55 | RRIRPRPPRLPRPRPRPESMPRP | 0.142
56 | RRIRKRPPRLPRPRPRPQYDPRP | -0.212
57 | RRIRPRPPRLPRPRPRPFKRPRP | -0.00475
58 | RRIRFRPPRLPRPRPRPCAQPRP | -0.077
59 | RRIRPRPPRLPRPRPRPLKPPRP | 0.0408
60 | RRIRYRPPRLPRPRPRPELPPRP | 0.0248
61 | RRIRVRPPRLPRPRPRPMSAPRP | 0.262
62 | RRIRARPPRLPRPRPRPFFRPRP | 0.126
63 | RRIRPRPPRLPRPRPRPCYGPRP | 0.0701
64 | RRIRERPPRLPRPRPRPPKEPRP | 0.0608
65 | RRIRPRPPRLPRPRPRPCYNPRP | -0.868
66 | RRIRRRPPRLPRPRPRPYMLPRP | -0.685
67 | RRIRIRPPRLPRPRPRPIQVPRP | -0.071
68 | RRIRKRPPRLPRPRPRPGYKPRP | 0.236
69 | RRIRHRPPRLPRPRPRPWPHPRP | -0.0305
70 | RRIRRRPPRLPRPRPRPQPRPRP | 0.5
71 | RRIRHRPPRLPRPRPRPQLTPRP | -0.261
72 | RRIRKRPPRLPRPRPRPSQEPRP | -0.0223
73 | RRIRHRPPRLPRPRPRPLMGPRP | 0.11
74 | RRIRFRPPRLPRPRPRPTIFPRP | -0.274
75 | RRIRIRPPRLPRPRPRPYIKPRP | -0.684

Row | Sequence | shrunken log2 fold change
76 | RRIRMRPPRLPRPRPRPGYCPRP | 0.0615
77 | RRIRPRPPRLPRPRPRPDYMPRP | -0.334
78 | RRIRMRPPRLPRPRPRPNVIPRP | -0.117
79 | RRIRARPPRLPRPRPRPWTPPRP | 0.123
80 | RRIRHRPPRLPRPRPRPNQAPRP | 0.033
81 | RRIRPRPPRLPRPRPRPMEMPRP | -0.0174
82 | RRIRERPPRLPRPRPRPQITPRP | -0.778
83 | RRIRGRPPRLPRPRPRPFDTPRP | 0.151
84 | RRIRYRPPRLPRPRPRPLDEPRP | 3.09
85 | RRIRRRPPRLPRPRPRPLTRPRP | 0.234
86 | RRIRHRPPRLPRPRPRPHICPRP | -0.259
87 | RRIRWRPPRLPRPRPRPARIPRP | 0.176
88 | RRIRCRPPRLPRPRPRPGSHPRP | -0.0784
89 | RRIRYRPPRLPRPRPRPTNMPRP | -0.541
90 | RRIRFRPPRLPRPRPRPCENPRP | 0.015
91 | RRIRNRPPRLPRPRPRPEAQPRP | -0.0169
92 | RRIRRRPPRLPRPRPRPATLPRP | 0.332
93 | RRIRSRPPRLPRPRPRPDYGPRP | -0.0953
94 | RRIRRRPPRLPRPRPRPKNGPRP | 0.259
95 | RRIRERPPRLPRPRPRPKMPPRP | -0.0401
96 | RRIRMRPPRLPRPRPRPNASPRP | 0.0546
97 | RRIRKRPPRLPRPRPRPGDFPRP | 0.18
98 | RRIRSRPPRLPRPRPRPECQPRP | -0.00188
99 | RRIRVRPPRLPRPRPRPMEQPRP | -0.033
100 | RRIRTRPPRLPRPRPRPQCHPRP | -0.0436

Row | Sequence | shrunken log2 fold change
101 | RRIRYRPPRLPRPRPRPDSVPRP | -0.338
102 | RRIRARPPRLPRPRPRPICQPRP | 0.216
103 | RRIRCRPPRLPRPRPRPKSWPRP | 0.323
104 | RRIRDRPPRLPRPRPRPRLKPRP | 0.411
105 | RRIRARPPRLPRPRPRPRPQPRP | 0.731
106 | RRIRHRPPRLPRPRPRPYFGPRP | -0.131
107 | RRIRRRPPRLPRPRPRPFNYPRP | -0.0716
108 | RRIRARPPRLPRPRPRPYFNPRP | -0.71
109 | RRIRWRPPRLPRPRPRPQKWPRP | 0.00891
110 | RRIRFRPPRLPRPRPRPWAIPRP | 0.268
111 | RRIRWRPPRLPRPRPRPFVVPRP | -0.242
112 | RRIRYRPPRLPRPRPRPINSPRP | -0.184
113 | RRIRYRPPRLPRPRPRPIIDPRP | -1
114 | RRIRIRPPRLPRPRPRPHRMPRP | -1.01
115 | RRIRERPPRLPRPRPRPDLTPRP | 0.0375
116 | RRIRFRPPRLPRPRPRPTWAPRP | 0.0327
117 | RRIRDRPPRLPRPRPRPEDRPRP | 0.0616
118 | RRIRPRPPRLPRPRPRPSPCPRP | -0.0121
119 | RRIRMRPPRLPRPRPRPNQLPRP | 0.0894
120 | RRIRFRPPRLPRPRPRPFHEPRP | -0.649
121 | RRIRCRPPRLPRPRPRPPVFPRP | 0.0601
122 | RRIRVRPPRLPRPRPRPWPFPRP | 0.14
123 | RRIRMRPPRLPRPRPRPAAMPRP | 0.915
124 | RRIRMRPPRLPRPRPRPWWCPRP | 0.0647
125 | RRIRQRPPRLPRPRPRPFIIPRP | 0.043
